# B1: Hairpin Ribozyme (parent)
# chain: GUCCUCUUUCACGUGCGCGUGAAAGAGAGAAGUGAACCAGAGAAACACACGUUGUGGUAUAUUACCUGGUA
# Variants of: B1
# Assay: self-cleavage, relative activity (ratio to wild type); higher = more cleavage; co-transcriptional
row,Variant,self-cleavage
1,GUCCUCUUUCACGUGCGCGUGAAAGAGAGAAGUGAACCAGAGAAACACACGCUCUGGUAUAUUACCUGGUA,0.0624
2,GUCCUCUUUCACGUGCGCGUGAAAGAGAGAAGUGAACCAGAGAAACACACGCUUUGGUAUAUUACCUGGUA,0.327
3,GUCCUCUUUCACGUGCGCGUGAAAGAGAGAAGUGAACCAGAGAAACACACGAUGUGGUAUAUUACAUGGUA,0.398
4,GUCCUCUUUCACGUGCGCGUGAAAGAGAGAAGUGAACCAGAGAAACACACGACGUGGUAUAUUACCUGGUA,1.32
5,GUCCUCUUUCACGUGCGCGUGAAAGAGAGAAGUGAACCAGAGAAACACACCUUGUGGUAUAUUAACUGGUA,0.857
6,GUCCUCUUUCACGUGCGCGUGAAAGAGAGAAGUGAACCAGAGAAACACACCUUGUGGUAUAUUAUCUGGUA,0.296
7,GUCCUCUUUCACGUGCGCGUGAAAGAGAGAAGUGAACCAGAGAAACACACCUUGUGGUAUACUACCUGGUA,0.239
8,GUCCUCUUUCACGUGCGCGUGAAAGAGAGAAGUGAACCAGAGAAACACACGCUGUGGCAUAUUACCUGGUA,0.755
9,GUCCUCUUUCACGUGCGCGUGAAAGAGAGAAGUGAACCAGAGAAACACACCUUGUGGUCUAUUACCUGGUA,0.14
10,GUCCUCUUUCACGUGCGCGUGAAAGAGAGAAGUGAACCAGAGAAACACACCUUGUGGUAUAUUACCGGGUA,0.164
11,GUCCUCUUUCACGUGCGCGUGAAAGAGAGAAGUGAACCAGAGAAACACACCUUGUGGUAUAUUACCCGGUA,0.182
12,GUCCUCUUUCACGUGCGCGUGAAAGAGAGAAGUGAACCAGAGAAACACACUUUGUGGUAUAUUCCCUGGUA,0.188
13,GUCCUCUUUCACGUGCGCGUGAAAGAGAGAAGUGAACCAGAGAAACACACAUUGUGGUAUAUAACCUGGUA,0.175
14,GUCCUCUUUCACGUGCGCGUGAAAGAGAGAAGUGAACCAGAGAAACACACAUUGUGGUAUAUCACCUGGUA,0.109
15,GUCCUCUUUCACGUGCGCGUGAAAGAGAGAAGUGAACCAGAGAAACACACCUUGUGGUAUAUUACCUGAUA,0.336
16,GUCCUCUUUCACGUGCGCGUGAAAGAGAGAAGUGAACCAGAGAAACACACCUUGUGGUAUAUUACCUGUUA,0.224
17,GUCCUCUUUCACGUGCGCGUGAAAGAGAGAAGUGAACCAGAGAAACACACCUUGUGGCAUAUUACCUGGUA,0.905
18,GUCCUCUUUCACGUGCGCGUGAAAGAGAGAAGUGAACCAGAGAAACACACCUUGUGGGAUAUUACCUGGUA,0.433
19,GUCCUCUUUCACGUGCGCGUGAAAGAGAGAAGUGAACCAGAGAAACACACAUUGUGGAAUAUUACCUGGUA,0.674

row,Variant,self-cleavage
1,GUCCUCUUUCACGUGCGCGUGAAAGAGAGAAGUGAACCAGAGAAACACACCUUGUGGUAUAUUACCUGGUU,0.722
2,GUCCUCUUUCACGUGCGCGUGAAAGAGAGAAGUGAACCAGAGAAACACACCUUGUGGUAUAUCACCUGGUA,0.1
3,GUCCUCUUUCACGUGCGCGUGAAAGAGAGAAGUGAACCAGAGAAACACACGAUGUGGUCUAUUACCUGGUA,0.245
4,GUCCUCUUUCACGUGCGCGUGAAAGAGAGAAGUGAACCAGAGAAACACACGAUGUGGUGUAUUACCUGGUA,0.159
5,GUCCUCUUUCACGUGCGCGUGAAAGAGAGAAGUGAACCAGAGAAACACACCUUGUGAUAUAUUACCUGGUA,0.147
6,GUCCUCUUUCACGUGCGCGUGAAAGAGAGAAGUGAACCAGAGAAACACACCUUGUGUUAUAUUACCUGGUA,0.204
7,GUCCUCUUUCACGUGCGCGUGAAAGAGAGAAGUGAACCAGAGAAACACACGCUGGGGUAUAUUACCUGGUA,0.301
8,GUCCUCUUUCACGUGCGCGUGAAAGAGAGAAGUGAACCAGAGAAACACACGCUGUGGUAUAUAACCUGGUA,0.206
9,GUCCUCUUUCACGUGCGCGUGAAAGAGAGAAGUGAACCAGAGAAACACACGCUGUGGUAUAUCACCUGGUA,0.226
10,GUCCUCUUUCACGUGCGCGUGAAAGAGAGAAGUGAACCAGAGAAACACACUUUGUGGUAUAUUACCUGGUC,1.46
11,GUCCUCUUUCACGUGCGCGUGAAAGAGAGAAGUGAACCAGAGAAACACACUUUGUGGUAUAUUACGUGGUA,0.2
12,GUCCUCUUUCACGUGCGCGUGAAAGAGAGAAGUGAACCAGAGAAACACACGAUGUGGUAUAUUACCUGGUG,1.12
13,GUCCUCUUUCACGUGCGCGUGAAAGAGAGAAGUGAACCAGAGAAACACACGAUGUGGUAUAUUACCUGGUU,0.915
14,GUCCUCUUUCACGUGCGCGUGAAAGAGAGAAGUGAACCAGAGAAACACACCUUGUGGUAUAUUACCUUGUA,0.227
15,GUCCUCUUUCACGUGCGCGUGAAAGAGAGAAGUGAACCAGAGAAACACACAUUGUGGUAGAUUACCUGGUA,0.672
16,GUCCUCUUUCACGUGCGCGUGAAAGAGAGAAGUGAACCAGAGAAACACACAUUGUGGUACAUUACCUGGUA,0.944
17,GUCCUCUUUCACGUGCGCGUGAAAGAGAGAAGUGAACCAGAGAAACACACAUUGUGGUAAAUUACCUGGUA,1.18
18,GUCCUCUUUCACGUGCGCGUGAAAGAGAGAAGUGAACCAGAGAAACACACUUUGUGGUAUAGUACCUGGUA,0.129
19,GUCCUCUUUCACGUGCGCGUGAAAGAGAGAAGUGAACCAGAGAAACACACGCUGUGGUAUACUACCUGGUA,0.248
